From patent publication US20240059752A1 (ZHEJIANG DOER BIOLOGICS CO., LTD., priority 2020, published 2024)
Where no end group is shown, it is not given here. [ ]: non-standard residue; d: D form. Aib = CC(C)(N)C(=O)O

Molecular target: T1, hGIPR (Homo sapiens, UniProt P48546)
T1 construct: expressed in transfected cells
T1 sequence (P48546 22-466): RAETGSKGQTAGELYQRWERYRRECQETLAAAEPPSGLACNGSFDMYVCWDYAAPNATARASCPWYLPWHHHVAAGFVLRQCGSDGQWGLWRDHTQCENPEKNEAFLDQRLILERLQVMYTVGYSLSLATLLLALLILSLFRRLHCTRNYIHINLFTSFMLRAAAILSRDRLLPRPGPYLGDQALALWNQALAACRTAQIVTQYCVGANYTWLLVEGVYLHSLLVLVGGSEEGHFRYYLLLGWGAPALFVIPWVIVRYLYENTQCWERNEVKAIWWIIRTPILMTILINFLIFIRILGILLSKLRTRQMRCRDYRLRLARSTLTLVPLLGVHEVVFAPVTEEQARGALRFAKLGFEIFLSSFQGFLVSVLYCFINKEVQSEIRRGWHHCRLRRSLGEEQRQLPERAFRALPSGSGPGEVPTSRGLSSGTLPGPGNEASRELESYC
Test: GIPR agonist activity, luciferase reporter gene assay in CHO-K1 cells
Assay type: cell-based
Conditions: % that of natural GIP peptide

Substance: P29: GCG analogue, SEQ ID No. 5, unconjugated backbone of P29F (H[Aib]QGTFTSDYSK[Aib]KDSQAAQDFVQWLLAGGPSSGAPPPS-NH2)
- GIPR agonist activity relative to natural GIP peptide: about 2%
